Measured values as given in article doi:10.1101/2025.07.03.663104.

Target: OsPR5-His (rice (Oryza sativa)) (UniProt P31110)
Test: BLI

Chain of OsPR5-His (rice (Oryza sativa)) (P31110 27-177): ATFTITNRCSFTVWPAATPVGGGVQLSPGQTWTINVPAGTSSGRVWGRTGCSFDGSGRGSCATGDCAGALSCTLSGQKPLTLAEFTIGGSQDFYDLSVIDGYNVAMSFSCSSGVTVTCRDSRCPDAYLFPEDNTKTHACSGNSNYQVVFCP

For GBP-His (natural protein), the Kd was 0.745 nM.

Work on “ThBP15k (recombinant, no tag named) (natural protein)” yielded a Kd of 25.9 nM.
